Assay results: PMC10920896 (2024)

What was measured:
[1] = molecular target: T1, biotinylated murine wildtype gp130 (D1-D6) with C-terminal biotin acceptor peptide and hexa-histidine tag (murine, UniProt Q00560 23-617, biotin on the C-terminal biotin acceptor peptide (in vitro, BirA)); assay: SPR; equilibrium fit
T1 chain: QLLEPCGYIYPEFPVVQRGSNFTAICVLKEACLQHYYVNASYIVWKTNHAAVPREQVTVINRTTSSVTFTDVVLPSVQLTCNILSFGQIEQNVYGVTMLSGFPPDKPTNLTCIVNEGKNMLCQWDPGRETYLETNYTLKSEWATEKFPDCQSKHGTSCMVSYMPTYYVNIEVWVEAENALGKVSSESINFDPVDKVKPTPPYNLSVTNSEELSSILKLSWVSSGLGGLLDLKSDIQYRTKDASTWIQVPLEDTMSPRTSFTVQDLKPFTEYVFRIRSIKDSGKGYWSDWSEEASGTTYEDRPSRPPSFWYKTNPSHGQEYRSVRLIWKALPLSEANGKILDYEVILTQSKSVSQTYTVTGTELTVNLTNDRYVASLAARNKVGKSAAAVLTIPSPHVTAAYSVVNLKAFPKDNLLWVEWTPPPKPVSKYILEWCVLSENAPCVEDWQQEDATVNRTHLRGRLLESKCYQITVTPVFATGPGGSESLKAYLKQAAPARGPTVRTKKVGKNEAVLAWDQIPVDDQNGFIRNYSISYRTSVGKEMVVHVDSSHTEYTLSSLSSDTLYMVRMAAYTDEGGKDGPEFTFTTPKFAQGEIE

[2] = molecular target: T2, biotinylated murine gp130_(P496L) (D1-D6) with C-terminal biotin acceptor peptide and hexa-histidine tag (murine, UniProt Q00560 23-617, P496L, biotin on the C-terminal biotin acceptor peptide (in vitro, BirA)); assay: SPR; equilibrium fit
[3] = molecular target: T1, biotinylated murine wildtype gp130 …; assay: SPR
[4] = molecular target: T2, biotinylated murine gp130_(P496L) …; assay: SPR
[5] = molecular target: T1, biotinylated murine wildtype gp130 …; assay: SPR; kinetic fit
[6] = molecular target: T2, biotinylated murine gp130_(P496L) …; assay: SPR; kinetic fit

B1: HypIL-11 (human IL-11 fused by a short linker to domains D2 and D3 of IL-11Rα, single chain) (other)
chain: PPARPVVSCQAADYENFSCTWSPSQISGLPTRYLTSYRKKTVLGADSQRRSPSTGPWPCPQDPLGAARCVVHGAEFWSQYRINVTEVNPLGASTRLLDVSLQSILRPDPPQGLRVESVPGYPRRLRASWTYPASWPCQPHFLLKFRLQYRPAQHPAWSTVEPAGLEEVITDAVAGLPHAVRVSARDFLDAGTWSTWSPEAWGTPSTPGPPPGPPRVSPDPRAELDSTVLLTRSLLADTRQLAAQLRDKFPADGDHNLDSLPTLAMSAGALGALQLPGVLTRLRADLLSYLRHVQWLRRAGGSSLKTLEPELGTLQARLDRLLRRLQLLMSRLALPQPPPDPPAPPLAPPSSAWGGIRAAHAILGGLHLTLDWAVRGLLLLKTRL
B1 showed a Kd [1] of 8.5 nM, a Kd [2] of 11 nM and a koff [3] of 0.0023 s⁻¹. It also gave a koff [4] of 0.0027 s⁻¹, a Kd [5] of 1.45 nM and a Kd [6] of 1.8 nM.
